The target in assay [1] is RepA, putative replicase of megaplasmid pMP7017 (Bifidobacterium breve JCM7017 (megaplasmid pMP7017)). In words: SEC-MALS.
Assay [2] addresses RepB, replication initiator of megaplasmid pMP7017 (Bifidobacterium breve JCM7017 (megaplasmid pMP7017)). In words: SEC-MALS. In general terms: SEC sorts molecules by how far they enter the pores of the column.

Consider two substances from PMC8313286.

In the case of “RepA, putative replicase of megaplasmid pMP7017 (natural protein)”, in assay [1], the percent of total protein in the dimer peak is 67.3%, the percent of total protein in the presumed octamer peak worked out at 15.7% and the percent of total protein in the presumed tetramer peak was 17%.

The stoichiometry N is the number of molecules, sites or subunits per partner or assembly. For the substance “RepB, replication initiator of megaplasmid pMP7017 (natural protein)”, in assay [2], the percent of total sample in the dimer peak turned out to be 97% and the stoichiometry N worked out at 2.
